# Entries after “also recorded” stand apart in the source; their conditions may differ.
# B1: rhNRGβ2: EGF-like domain of human NRGβ2 isoform, residues 177-237 (SEQ ID NO: 2), FLAG-peptide at N-terminus, expressed in E. coli DH5α (protein, listed as Homo sapiens)
# chain: {FLAG}-SHLVKCAEKEKTFCVNGGECFMVKDLSNPSRYLCKCPNEFTGDRCQNYVMASFYKAEELYQ
# modifications: also: recombinant protein expressed in E. coli
# Experiments:
# p42/p44 MAP kinases [1] = assay: p42/p44 MAP kinase phosphorylation in embryonic cardiomyocytes (immunoblot); format: cell-based, mouse
# Description: (§1) Mouse embryos (E11.5-12.5) were used to prepare primary cardiac myocytes. Heart tissue was isolated aseptically from embryos. Myocardial cells were isolated by collagenase digestion and separated from non cardiomyocytes by preattachments on culture dishes that was performed three times. Cells were then cultured as described previously. Using this method, it was routinely possible to obtain primary cultures with >90% myocytes.
# (§2) Embryonic myocardial cells were cultured in serum-free medium for at least 24 hrs and then stimulated with rhNRGβ2 or IGF-I for various times. Stimulation was terminated by washing cells rapidly with cold PBS. To block the MAP kinase activation, the MEK inhibitor, PD98059, was added to the medium 30 mins prior to the administration of rhNRGβ2 or IGF-I. Cells were then harvested as previously described for Western blot analysis with HRPO-conjugated monoclonal antibody RC20H (1:2,000) for detection of phosphorylated ErbB receptors, or a phospho-specific p42/p44 MAP kinase antibody (dilution ratio 1:1,000) for detection of phosphorylated MAP kinases. The same amount of cell extract protein was loaded into each lane and separated by SDS-PAGE. Immunobloting with an anti-ErbB receptor or anti-p42/44 MAP kinase antibodies was also used to normalise for protein loading. MAP-kinase (p42/p44) activity was measured using a p42/44 MAP kinase enzyme assay kit (RPN84; Amersham, Bucks, U.K.) according to the manufacturer's instructions.
# p21^CIP1 = p21^CIP1 protein expression in embryonic cardiac muscle cells (immunoblot); format: cell-based, mouse
# Description: as §1
# Embryonic myocardial cells cultured in serum-free or 5% FBS medium were stimulated with various concentrations of rhNRGβ2 with or without the MEK inhibitor, PD98059, for 24 or 48 hrs, harvested as described above and subjected to immunoblot analysis using an anti-p21^CIP1 antibody (1:100). The same amount of protein was loaded into each well of a SDS polyacrylamide gel. After immunoblotting, the membrane was stripped and probed further with an antibody to the ErbB2 receptor for normalisation of protein loading.
# [2] = test system: E12.5 mouse cardiac muscle cells; assay: Sarcomeric and cytoskeletal structure of embryonic mouse cardiac muscle cells (phalloidin and anti-α-actinin staining); format: cell-based; conditions: for sarcomeric actin reorganisation and contractile unit assembly: 48 hrs, serum-free
# Description: as §1
# (§3) Myocardial cells were plated in 2-well Novex plates (Nunc), and cultured with or without rhNRGβ2 in serum-free DMEM medium for 24-48 hour. After rinsing the cells with PBS, they were fixed with 4% paraformaldehyde and 0.1% Triton X-100 at room temperature for 30 minutes. The fixed cells were then blocked with 5% skim milk in PBS for 1 hr, followed by incubation with an anti-α-actinin monoclonal antibody (Sigma), for 45 minutes at room temperature. After washing, anti-mouse IgG conjugated with FITC (Sigma) was added and the cells were incubated for another half hour. For phalloidin staining, cells were fixed with 4% formadehyde for 1 hr, washed, and stained with phalloidin buffer (100 μl PBS, 10 μl rhodarmine phalloidin (6.6 μM in MeOH)) for 1 hr. After PBS washing, cells were mounted with 1% p-phenylenediamine (1 mg/ml, Sigma) in glycerol, and then covered and sealed. Cells were examined using a UV fluorescent microscope and photographed with a 40× power objective.
# [3] = test system: neonatal rat cardiac muscle cells; assay: Sarcomeric and cytoskeleton structures and MHC-α expression of cultured neonatal rat cardiac muscle cells; format: cell-based; conditions: for sarcomeric and cytoskeleton structures, cell-cell adhesions: single agent, Phalloidin and anti-α-actinin staining
# Description: By using primary cultured myocardial cells as a model system, the present inventor evaluated neuregulin signalling in cardiac myocyte differentiation, maturation and assembly or maintenance of sarcomeric and cytoskeleton structures. To assay the neuregulin effect on cell signalling, embryonic cardiac muscle cells were incubated with recombinantly purified human neuregulin ligand (rhNRGβ2). […] Such an effect was not found from the cells stimulated with either insulin IGF-1 or PE. […] These findings indicate that NRG function through two distinct pathways: one activated at lower ligand concentrations results in cardiomyocyte growth, whereas the other, activated with higher concentrations, is mediated by sustained activation of the MAP kinase pathway and results in terminal differentiation and maturation.
# as §3
# ventricular muscle cells = conditions: cited from earlier work; for hypertrophy score (maximal increase in cell size): scale 7 to 0, 3 = non-stimulated cells, 7 = fully hypertrophied
# [4] = test system: embryonic mouse cardiomyocytes; assay: DNA synthesis ([3H] thymidine incorporation) in cultured embryonic mouse cardiomyocytes; format: cell-based; conditions: for effect on IGF-I (10^−9M)-stimulated DNA synthesis: 20 hrs
# Description: as §1
# Embryonic myocardial cells were cultured with rhNRGβ2 or IGF-I containing serum-free DMEM for 20 hrs. [methyl-^3H] Thymidine (0.5 μCi/well) was added and cells were then cultured for a further 12 hrs. After rinsing twice with cold PBS, once with ice-cold 10% trichloroacetic acid, and then five times with ice-cold PBS, the cells were dissolved in 100 μl of 1% SDS, and counted in a liquid scintillation counter.
# All of the above assays were repeated at least three times for each experiments. Data for DNA synthesis and MAP kinase activity are presented as the mean±S.E of five replicate samples. Statistical significance was determined by ANOVA using the SAS statistical package with P<0.05 being considered significant. Immunoblots were quantitated by densitometry analysis with the intensity of the evaluated protein bands being shown below the blots as the fold changes over control (see FIGs).
# [5] = target: T1, ErbB2 and ErbB4 receptors (Mus musculus, UniProt Q61527); assay: ErbB receptor phosphorylation in embryonic cardiomyocytes (Western blot / immunoprecipitation); format: cell-based
# T1 construct: ErbB2 and ErbB4 are most abundantly expressed in cardiac myocytes; endogenous in cells; host or cells: primary embryonic (E11.5-12.5) mouse cardiac myocytes
# Description: as §1
# as §2, with “Immunobloting with an anti-ErbB receptor or anti-p42/44 MAP kinase antibodies was also used to normalise for protein loading.” left out
# p42/p44 MAP kinases [6] = assay: MAP kinase catalytic activity in extracts of treated cardiomyocytes (p42/44 MAP kinase enzyme assay kit); format: cell-based, mouse
# Description: as §1
# Embryonic myocardial cells were cultured in serum-free medium for at least 24 hrs and then stimulated with rhNRGβ2 or IGF-I for various times. Stimulation was terminated by washing cells rapidly with cold PBS. […] MAP-kinase (p42/p44) activity was measured using a p42/44 MAP kinase enzyme assay kit (RPN84; Amersham, Bucks, U.K.) according to the manufacturer's instructions.
# All of the above assays were repeated at least three times for each experiments. […] Statistical significance was determined by ANOVA using the SAS statistical package with P<0.05 being considered significant. Immunoblots were quantitated by densitometry analysis with the intensity of the evaluated protein bands being shown below the blots as the fold changes over control (see FIGs).
# [7] = test system: sarcomeric myosin heavy chains; assay: Sarcomeric myosin heavy chain and sarcomeric actin expression in embryonic mouse cardiac muscle cells (immunoblot); format: cell-based; conditions: rhNRGβ2-stimulated
# Description: FIGS. 6A-6B. Effects of NRG on cardiac sarcomere assembly and myosin heavy chains expression. FIG. 6A. E12.5 mouse cardiac muscle cells were cultured in serum-free medium (control) or stimulated with 10^−10 or 10^−8M rhNRGβ2 (NRG) for 48 hrs. Cells were then stained with phalloidin (left panels) or evaluated for anti-α-actinin immunoflorescency (right panels). FIG. 6B. Sarcomeric myosin heavy chain α-actin expression rhNRGβ2-stimulated embryonic mouse cardiac muscle cells were evaluated by immunoblot analysis using an anti-sarcomeric myosin heavy chain antibody (MF20) or an anti-α-actinin antibody. The same amount of whole cell extracts (20 μg proteins) was loaded into each lane for SDS-PAGE fractionation.
# as §1
# [8] = test system: MCF-7 breast cancer cell ErbB receptors; assay: Stimulation of MCF-7 breast cancer cell ErbB receptors (activity check of purified protein); format: cell-based; conditions: ligand 10^−12M to 10^−8M, MCF-7 cells
# From the text: A cDNA encoding the EGF-like domain of human NRGβ2 isoform (rhNRGβ2, residues 177-237, was inserted into the pFLAG1 expression vector (IBI) (a gift from Dr. Rodney J. Fiddes, Co-operative Research Centre for Biopharmaceutical Research, Australia). rhNRGβ2 with a FLAG-peptide attached at its N-terminus, was expressed in the periplasmic space of E. coli DH5α, and purified by affinity chromatography using anti-FLAG M1 monoclonal antibody according to the manufacturer's instructions. The purity of rhNRGβ2 was more than 90% as evidenced by SDS-PAGE separation and Coomassie Blue staining of purified protein samples. The concentration of purified proteins was determined using a Bio-Rad protein assay kit. Activity of the purified proteins was assayed by stimulation of MCF-7 breast cancer cell ErbB receptors with various ligand doses.
# T1 sequence (Q61527 26-1308): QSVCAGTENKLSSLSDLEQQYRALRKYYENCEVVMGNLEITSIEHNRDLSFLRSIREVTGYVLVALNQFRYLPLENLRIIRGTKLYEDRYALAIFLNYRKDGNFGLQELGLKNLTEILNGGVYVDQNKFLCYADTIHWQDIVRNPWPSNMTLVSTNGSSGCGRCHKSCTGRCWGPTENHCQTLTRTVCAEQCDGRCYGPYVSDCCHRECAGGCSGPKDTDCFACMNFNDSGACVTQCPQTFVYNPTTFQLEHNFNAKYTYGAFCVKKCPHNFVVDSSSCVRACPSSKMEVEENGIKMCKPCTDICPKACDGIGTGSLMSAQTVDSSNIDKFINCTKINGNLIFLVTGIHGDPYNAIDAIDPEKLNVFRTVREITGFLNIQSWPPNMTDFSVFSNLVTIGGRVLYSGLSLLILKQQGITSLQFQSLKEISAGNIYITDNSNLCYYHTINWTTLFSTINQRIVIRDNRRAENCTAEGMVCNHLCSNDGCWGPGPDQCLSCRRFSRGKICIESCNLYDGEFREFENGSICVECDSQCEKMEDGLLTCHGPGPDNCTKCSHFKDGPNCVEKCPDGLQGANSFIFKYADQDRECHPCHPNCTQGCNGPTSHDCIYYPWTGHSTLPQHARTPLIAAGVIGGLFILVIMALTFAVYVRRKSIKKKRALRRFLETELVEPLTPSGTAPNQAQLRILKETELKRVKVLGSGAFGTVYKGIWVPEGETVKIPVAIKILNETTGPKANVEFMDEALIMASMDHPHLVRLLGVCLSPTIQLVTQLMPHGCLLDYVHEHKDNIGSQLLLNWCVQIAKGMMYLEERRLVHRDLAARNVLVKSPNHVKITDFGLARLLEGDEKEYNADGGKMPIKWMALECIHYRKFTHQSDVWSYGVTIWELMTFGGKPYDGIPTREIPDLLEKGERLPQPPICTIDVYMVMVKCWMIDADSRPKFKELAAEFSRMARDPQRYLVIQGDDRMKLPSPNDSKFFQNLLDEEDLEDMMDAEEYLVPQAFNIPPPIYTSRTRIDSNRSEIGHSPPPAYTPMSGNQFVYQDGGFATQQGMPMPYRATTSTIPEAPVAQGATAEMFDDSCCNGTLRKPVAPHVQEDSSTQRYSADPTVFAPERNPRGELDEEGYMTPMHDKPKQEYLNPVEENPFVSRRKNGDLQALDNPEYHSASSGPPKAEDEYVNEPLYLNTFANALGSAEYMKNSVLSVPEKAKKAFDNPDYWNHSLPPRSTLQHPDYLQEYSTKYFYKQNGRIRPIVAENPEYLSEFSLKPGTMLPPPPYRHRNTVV
# T1 sequence (P70424 23-1256 partner): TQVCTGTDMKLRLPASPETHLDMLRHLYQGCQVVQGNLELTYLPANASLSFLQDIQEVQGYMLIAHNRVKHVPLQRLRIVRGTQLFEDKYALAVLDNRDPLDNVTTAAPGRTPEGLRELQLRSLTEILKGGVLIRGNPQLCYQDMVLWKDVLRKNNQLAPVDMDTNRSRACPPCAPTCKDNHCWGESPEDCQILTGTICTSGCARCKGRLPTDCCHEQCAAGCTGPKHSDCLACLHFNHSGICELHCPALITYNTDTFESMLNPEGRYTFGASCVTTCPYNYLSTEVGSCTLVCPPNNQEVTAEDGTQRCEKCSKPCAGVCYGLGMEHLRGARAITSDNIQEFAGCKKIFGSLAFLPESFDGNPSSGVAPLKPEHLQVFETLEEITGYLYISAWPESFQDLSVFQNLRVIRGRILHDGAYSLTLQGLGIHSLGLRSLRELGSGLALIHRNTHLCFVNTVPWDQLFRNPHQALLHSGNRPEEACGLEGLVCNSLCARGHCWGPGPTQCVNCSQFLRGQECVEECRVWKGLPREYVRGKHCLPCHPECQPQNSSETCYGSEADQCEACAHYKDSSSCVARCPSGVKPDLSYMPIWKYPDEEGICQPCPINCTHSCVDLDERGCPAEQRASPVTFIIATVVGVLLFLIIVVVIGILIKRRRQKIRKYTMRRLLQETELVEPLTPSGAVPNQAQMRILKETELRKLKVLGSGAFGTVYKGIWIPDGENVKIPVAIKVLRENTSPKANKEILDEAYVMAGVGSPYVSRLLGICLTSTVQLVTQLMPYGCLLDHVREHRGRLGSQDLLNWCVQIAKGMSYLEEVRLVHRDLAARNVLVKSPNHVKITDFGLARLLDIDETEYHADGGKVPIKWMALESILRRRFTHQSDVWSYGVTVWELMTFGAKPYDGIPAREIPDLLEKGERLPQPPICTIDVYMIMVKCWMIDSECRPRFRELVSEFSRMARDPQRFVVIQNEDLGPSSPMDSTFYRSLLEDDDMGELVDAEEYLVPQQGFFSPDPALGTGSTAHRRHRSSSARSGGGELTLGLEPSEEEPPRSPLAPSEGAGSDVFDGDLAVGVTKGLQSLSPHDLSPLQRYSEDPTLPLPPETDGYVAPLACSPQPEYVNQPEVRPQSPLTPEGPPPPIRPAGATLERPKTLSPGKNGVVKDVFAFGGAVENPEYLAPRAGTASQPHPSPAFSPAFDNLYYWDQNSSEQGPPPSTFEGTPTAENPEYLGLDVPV
molecule,measurement,setting,value
"COc1cccc(-c2cc(=O)c3ccccc3o2)c1N [PD98059, reference compound]",effect on NRG-induced increase in p42/44 MAP kinase phosphorylation,"p42/p44 MAP kinases [1]; PD98059 added 30 mins before, cells stimulated 5 min",blocked
same,effect on p21^CIP1 expression induced by 10^−8M rhNRGβ2,"p21^CIP1; PD98059 50 μM, presence or absence of serum",blocked the increase in p21^CIP1 expression
same,sensitivity of rhNRGβ2 effects on cardiomyocytes to MEK1 inhibition,[2]; PD98059,sensitive to MEK1 inhibition
"CNC[C@H](O)c1cccc(O)c1 [PE, phenylephrine]","sarcomeric and cytoskeleton structures, cell-cell adhesions",[3],not found
same,surface area/cell of fully hypertrophied cells,ventricular muscle cells; non-exposed cells 581 μm^2,1811 μm^2
same,hypertrophy score (maximal increase in cell size),ventricular muscle cells,7
CC[C@H](C)[C@H](NC(=O)[C@H](CC(=O)O)NC(=O)[C@H](CC(C)C)NC(=O)[C@H](Cc1c[nH]cn1)NC(=O)[C@@H]1CSSC[C@H](N)C(=O)N[C@@H](CO)C(=O)N[C@H]2CSSC[C@H](NC(=O)[C@H](CCC(=O)O)NC(=O)[C@H](CCCCN)NC(=O)[C@H](CC(=O)O)NC(=O)[C@H](CCSC)NC(=O)[C@H](CC(C)C)NC(=O)[C@H](CO)NC(=O)[C@H](CO)NC2=O)C(=O)N[C@@H](C(C)C)C(=O)N[C@@H](Cc2ccc(O)cc2)C(=O)N[C@@H](Cc2ccccc2)C(=O)N1)C(=O)N[C@H](C(=O)N[C@@H](Cc1c[nH]c2ccccc12)C(=O)O)[C@@H](C)CC [endothelin],hypertrophy score (maximal increase in cell size),ventricular muscle cells,~5
"IGF-I: recombinant human insulin-like growth factor I, commercially obtained (Boehringer)",DNA synthesis response,[4]; concentrations ranging from 10^−11M to 10^−7M,only a proliferative response
same,MAP kinase phosphorylation time course,p42/p44 MAP kinases [1]; IGF-I low (10^−9M) and high (10^−8M or 10^−7M) concentrations,transient
same,p21^CIP1 expression,p21^CIP1; IGF-I 10^−10M or 10^−8M,did not stimulate p21^CP1 expression
same,"sarcomeric and cytoskeleton structures, cell-cell adhesions",[3],not found
B1,effect on IGF-I (10^−9M)-stimulated DNA synthesis,[4]; 10^−8M NRG,significantly blocked the IGF-I response
same,effect on IGF-I (10^−9M)-stimulated DNA synthesis,[4]; 10^−10M NRG,little effect
same,DNA synthesis response versus control (vehicle),"[4]; all concentrations except 10^−7M, P<0.001, 20 hr",significantly greater than control
same,DNA synthesis,[4]; ligand concentrations >10^−10M,decreased
same,increase in DNA synthesis,"[4]; rhNRGβ2 at 10^−10, 20 hr treatment, embryonic mouse cardiomyocytes (E11.5-12.5)",approximately 2 fold
same,phosphorylation of 180-185 kDa proteins corresponding to ErbB2/ErbB4 receptors,"[5]; 10^−8M compared with 10^−10M, cell lysates",a higher level of phosphorylated 180-185 kDa proteins
same,phosphorylation of immunoprecipitated ErbB2 and ErbB4,"[5]; 5 min stimulation, 10^−10M or 10^−8M",dependent on rhNRβ2 concentrations
same,duration of p42/p44 MAP kinase phosphorylation,p42/p44 MAP kinases [1]; 10^−8M (higher dose),at least 21 hours
same,MAP kinase activation (phosphorylation) time course,"p42/p44 MAP kinases [1]; 10^−10M (lower ligand concentration), fell to basal level in less than three hours",only transient activation
same,MAP kinase phosphorylation time course,p42/p44 MAP kinases [1]; combination of IGF-I (10^−9M) and rhNRGβ2 (10^−8M),sustained MAP kinase phosphorylation
same,duration of MAP kinase catalytic activity,p42/p44 MAP kinases [6]; 10^−8M,at least 21 hours
same,MAP kinase catalytic activity time course,p42/p44 MAP kinases [6]; 10^−10M,only transient
same,duration of enhanced p21^CIP1 expression,p21^CIP1; 10^−8M,at least 24 hours
same,p21^CIP1 expression,"p21^CIP1; 10^−8M (higher concentration), serum-free or 5% FBS, 24 hrs",increase in p21^CIP1 expression; also recorded: enhanced
same,sarcomeric actin reorganisation and contractile unit assembly,[2]; 10^−8M,stimulated both sarcomeric actin reorganisation (phalloidin staining) and cardiac contractile unit assembly
same,sarcomeric actin reorganisation and contractile unit assembly,[2]; 10^−10M,much less evident
same,expression of sarcomeric myosin heavy chains,[7]; MF20 immunoblot,enhanced expression of sarcomeric myosin heavy chains
same,sarcomeric actin expression,[7]; immunoblot,remained unchanged
same,ErbB receptor phosphorylation,[8],increased ErbB receptor phosphorylation with increasing ligand concentration
same,improvement of sarcomeres and cell-cell adhesions,[3]; 10^−8M concentration,maximal effect
same,cell structures when mixed with either IGF-1 or PE,[3]; rhNRGβ2 mixed with IGF-1 or PE,improved the cell structures
same,"sarcomeric and cytoskeleton structures, cell-cell adhesions",[3],"dramatically improved sarcomeric and cytoskeleton structures, as well as cell-cell adhesions"
same,MHC-α expression under PE stimulation,[3]; with PE,overrode the negative regulation of MHC-α expression

# — patent US20170189489A1, “CARDIAC MUSCLE FUNCTION AND MANIPULATION” (Zensun (Shanghai) Science & Technology, Co., Ltd., priority 1998, published 2017)
